Assay results from publication PMC11667970, “Mycobacterium tuberculosis Mce3R TetR-like Repressor Forms an Asymmetric Four-Helix Bundle and Binds a Nonpalindrome Sequence†” (ACS Chemical Biology, 2024).

Key:
[1] = target: the molecule itself; assay: SEC
[2] = target: T1, Mce3R (Mycobacterium tuberculosis H37Rv, UniProt P95251 1-406); assay: EMSA; 10 nM DNA, 0-128 nM protein; details: protein: recombinant; tags: MBP-His6 N-terminal, removed with TEV; chain copies: 2; label: 5'-Cy3 (forward strand); blunt
T1 sequence: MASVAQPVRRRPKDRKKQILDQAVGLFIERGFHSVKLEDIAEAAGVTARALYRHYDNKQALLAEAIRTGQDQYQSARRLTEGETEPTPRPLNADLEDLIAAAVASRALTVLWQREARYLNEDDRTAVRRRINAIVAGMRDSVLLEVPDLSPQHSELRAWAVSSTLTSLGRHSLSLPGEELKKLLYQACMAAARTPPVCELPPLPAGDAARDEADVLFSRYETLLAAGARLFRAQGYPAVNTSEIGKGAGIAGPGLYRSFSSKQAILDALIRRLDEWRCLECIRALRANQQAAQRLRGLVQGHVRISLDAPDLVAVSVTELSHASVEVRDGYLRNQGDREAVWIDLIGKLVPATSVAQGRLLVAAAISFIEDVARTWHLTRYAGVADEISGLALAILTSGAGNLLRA

[3] = target: T1, Mce3R; assay: EMSA; details: protein: recombinant; tags: MBP-His6 N-terminal, removed with TEV; chain copies: 2; label: 5'-Cy3; blunt
[4] = target: T1, Mce3R; assay: EMSA; up to 128 nM Mce3R, 1 ug poly(dI-dC); details: protein: recombinant; tags: MBP-His6 N-terminal, removed with TEV; chain copies: 2; label: 5'-Cy3 (forward strand); blunt

B1: Mce3R (Rv1963c), full-length TetR-like repressor of Mycobacterium tuberculosis (natural protein)
chain: MASVAQPVRRRPKDRKKQILDQAVGLFIERGFHSVKLEDIAEAAGVTARALYRHYDNKQALLAEAIRTGQDQYQSARRLTEGETEPTPRPLNADLEDLIAAAVASRALTVLWQREARYLNEDDRTAVRRRINAIVAGMRDSVLLEVPDLSPQHSELRAWAVSSTLTSLGRHSLSLPGEELKKLLYQACMAAARTPPVCELPPLPAGDAARDEADVLFSRYETLLAAGARLFRAQGYPAVNTSEIGKGAGIAGPGLYRSFSSKQAILDALIRRLDEWRCLECIRALRANQQAAQRLRGLVQGHVRISLDAPDLVAVSVTELSHASVEVRDGYLRNQGDREAVWIDLIGKLVPATSVAQGRLLVAAAISFIEDVARTWHLTRYAGVADEISGLALAILTSGAGNLLRA
notes: Mce3R (Rv1963c), Mycobacterium tuberculosis H37Rv, full length; calculated MW 44.3 kDa; also called M1M2 TFR; wild-type Mce3R; not shown: MBP, N-terminal, cleaved; His6, N-terminal, cleaved
stoichiometry N [1]: 2

B2: Probe A* (dsDNA)
DNA 1: CTACAAGTGCTGGAGGTCAAATCCCGCATCAACATAGCCAATATATGCCAGTTTGCATTGCTATTTACCGATCAGTTGTCCAAGCAATCGCGTATTGGCTATGGACATCAGCGGTTCTGCCGC
DNA 2: GCGGCAGAACCGCTGATGTCCATAGCCAATACGCGATTGCTTGGACAACTGATCGGTAAATAGCAATGCAAACTGGCATATATTGGCTATGTTGATGCGGGATTTGACCTCCAGCACTTGTAG
Kd [2]: 59 ± 10 nM

B3: Probe C (dsDNA)
DNA 1: TAGCCAATATATGCCAGTTTGCATTGCTATTTACCGATCAGTTGTCCAAGCAATCGCGTATTGGCTATGGACATCAGCGGTTCTGCCGC
DNA 2: GCGGCAGAACCGCTGATGTCCATAGCCAATACGCGATTGCTTGGACAACTGATCGGTAAATAGCAATGCAAACTGGCATATATTGGCTA
binding result [3]: binds

B4: Probe A' (dsDNA)
DNA 1: CCAGTGCGACCTAACCAAGGACCTACAGATTCTGTCCGTGAGAGAATCGTGTTGGCCTCAGAAGACGGTCGCAAGTTCTCTTTATGACCTGCTAAACTTGAGCCTATATTAGTTATCGCACCT
DNA 2: AGGTGCGATAACTAATATAGGCTCAAGTTTAGCAGGTCATAAAGAGAACTTGCGACCGTCTTCTGAGGCCAACACGATTCTCTCACGGACAGAATCTGTAGGTCCTTGGTTAGGTCGCACTGG
binding result [4]: no binding

B5: Probe A (dsDNA)
DNA 1: GCCCCGCGCTATAGGATACTAGCAAGATACATCATAGCCAATATATGCCAGTTTGCATTGCTATTTACCGATCAGTTGTCCAAGCAATCGCGTATTGGCTATGGACATCAGCGGTTCTGCCGC
DNA 2: GCGGCAGAACCGCTGATGTCCATAGCCAATACGCGATTGCTTGGACAACTGATCGGTAAATAGCAATGCAAACTGGCATATATTGGCTATGATGTATCTTGCTAGTATCCTATAGCGCGGGGC
Kd [2]: 2.4 ± 0.7 nM
